Target: HLA-A*02:01
Assay: IEDB peptide-MHC binding, purified MHC/competitive/fluorescence; ≥ and ≤ were set here for values at or beyond the usual limits of such assays
Details: source organism: Homo sapiens

Q: How did the IC50 turn out when ALYLVCGER was run?
A: The IC50 was ≥ 90.2 µM.

Q: With ALYLVCGERG as the sequence, how does the IC50 read?
A: Its IC50 is ≥ 100 µM.

Q: Which IC50 does the source give for ALYLVCGERGF here?
A: Its IC50 is 2.26 µM.

Q: For GSHLVEALYLV, which IC50 is on record?
A: Its IC50 is 3.73 µM.

Q: For HLCGSHLVEAL, which IC50 is on record?
A: The IC50 was 0.44 µM.

Q: HLVEALYLVC was tested. Which IC50 did it give?
A: Its IC50 is 1.75 µM.

Q: HLVEALYLVCG was tested. Which IC50 did it give?
A: Its IC50 is 0.19 µM.

Q: SHLVEALYL was tested. Which IC50 did it give?
A: The IC50 was 59.5 µM.

Q: With YLVCGERGFF as the sequence, how does the IC50 read?
A: Its IC50 is 2.3 µM.

Q: With YLVCGERGFFY as the sequence, how does the IC50 read?
A: Its IC50 is 8.59 µM.
